Measurements as given in US20240025993A1, “CD19 BINDING MOLECULES AND USES THEREOF” (NOVARTIS AG, priority 2020, published 2024).

T1: human CD19 (Homo sapiens, UniProt P15391)
T1 construct: expressed in transfected cells; host or cells: mouse cell line 300.19
T1 sequence (P15391 20-556): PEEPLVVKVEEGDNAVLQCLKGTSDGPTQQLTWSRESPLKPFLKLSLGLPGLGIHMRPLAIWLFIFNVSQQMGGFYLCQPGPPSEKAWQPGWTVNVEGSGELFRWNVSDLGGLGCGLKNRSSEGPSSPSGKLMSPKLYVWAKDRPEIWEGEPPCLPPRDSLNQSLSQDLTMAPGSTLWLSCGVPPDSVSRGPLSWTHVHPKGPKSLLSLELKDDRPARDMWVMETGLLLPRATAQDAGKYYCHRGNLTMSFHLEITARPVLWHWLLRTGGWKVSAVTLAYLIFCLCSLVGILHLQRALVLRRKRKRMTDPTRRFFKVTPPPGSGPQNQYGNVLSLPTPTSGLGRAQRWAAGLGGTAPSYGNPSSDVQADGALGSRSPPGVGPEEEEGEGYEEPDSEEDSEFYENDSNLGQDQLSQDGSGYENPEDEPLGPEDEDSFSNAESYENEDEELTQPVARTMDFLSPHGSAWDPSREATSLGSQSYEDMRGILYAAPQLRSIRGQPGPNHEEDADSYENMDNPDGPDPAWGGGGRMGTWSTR


Legend:
cyno CD19 = assay: Binding of TBMs to 300.19 cells overexpressing cyno CD19 (Example 11); conditions: flow cytometry, R variants
Description: (§1) The mouse cell line 300.19 was engineered to overexpress either human CD19 or cyno CD19. Cells were cultured in RPMI medium (Invitrogen #11875-093) with 10% FBS and 2-mercaptoethanol. Cells were harvested and resuspended in FACS buffer (PBS containing 1% FBS). 50,000 cells per well were plated in a V-bottom 96-well plate. Each cell line was incubated with serial dilutions of TBMs of Example 1A (i.e., R variants) for one hour on ice. Cells were centrifuged for 4 min at 400×g and washed with FACS buffer. This was repeated twice, and then the cells were incubated with Alexa-647 labeled anti-human Fc secondary antibody (Jackson Immuno #109-605-098) for 30 min on ice. The cells were washed twice, then resuspended in 100 μL of FACS buffer. FACS data was collected on a Beckman Coulter Cytoflex and analysis was performed using CytExpert v2.3.

human CD19 = biological target: T1, human CD19; assay: Binding of TBMs to 300.19 cells overexpressing human CD19 (Example 11); conditions: flow cytometry, R variants
Description: as §1

human FcγR1A = human FcγR1A (Homo sapiens, UniProt P12314); assay: SPR binding of Fc modified anti-CD3 IgG1 antibodies (Example 34); conditions: anti-CD3 IgG1 antibody immobilized
Sequence of human FcγR1A (P12314 16-374): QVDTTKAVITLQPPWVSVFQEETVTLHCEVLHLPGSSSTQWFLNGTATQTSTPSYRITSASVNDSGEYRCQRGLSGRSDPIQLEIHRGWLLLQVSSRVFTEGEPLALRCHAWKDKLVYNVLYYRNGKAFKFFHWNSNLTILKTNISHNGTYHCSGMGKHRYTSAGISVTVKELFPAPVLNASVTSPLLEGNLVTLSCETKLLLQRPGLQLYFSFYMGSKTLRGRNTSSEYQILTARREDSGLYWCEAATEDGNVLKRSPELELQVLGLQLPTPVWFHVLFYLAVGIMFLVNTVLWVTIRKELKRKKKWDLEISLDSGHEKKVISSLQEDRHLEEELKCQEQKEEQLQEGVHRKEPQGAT
Description: Surface plasmon resonance (SPR) experiments were performed to analyze the interaction of human activating receptors FcγR1A, FcγR3A (V158) and human C1q with IgG1 WT and antibody-Fc variants. Binding kinetics and their relative binding affinities were explored. The binding affinity is an important characteristic of an interaction between an antibody and an antigen. The equilibrium dissociation constant (KD) defines how strong the interaction is and therefore how much antibody-antigen complex is formed at equilibrium.
The knowledge of the antibody characteristics is not only essential during selection of the best therapeutic antibody candidate, but also important to understand the in vivo behavior and potentially predict cellular immune responses. […] Binding to human C1q was evaluated. […] SPR measurements were measured on a Biacore T200 (GE-Healthcare Life Sciences) controlled by Biacore T200 control software version 2.0.1. […]
The antibodies were covalently immobilized on a CM5 sensor chip whereas Fc gamma receptors or human C1q served as analytes in solution (FIG. 38). […] Zero concentration samples (blank runs) were measured for both methods to allow double-referencing during data evaluation.
Data were evaluated using the Biacore T200 evaluation software. […] In addition, the maximum response reached during the experiment was monitored. […]

[1] = Aggregation propensity (% HMW) by analytical SEC of IgG1 anti-CD3 antibody and Fc variants (Example 35); assay type: physicochemical; conditions: PBS pH 7.4, anti-CD3 antibodies
Description: Size exclusion chromatography measurements were performed to evaluate the aggregation propensity (% HMW) of IgG1 antibody and Fc modified derivatives. The produced and purified anti CD3 antibodies were applied to an analytical size exclusion chromatography column (SEC 200, GE Healthcare), equilibrated with PBS buffer pH 7.4.

[2] = Differential scanning calorimetry, melting temperature of Fc modified anti-CD3 antibodies (Example 35); assay type: physicochemical; conditions: DSC, 1 mg/ml in PBS pH 7.4, anti-CD3 IgG1 Fc variants
Description: Calorimetric measurements were carried out on a differential scanning micro calorimeter (Nano DSC, TA instruments). The cell volume was 0.5 ml and the heating rate was 1° C./min. All proteins were used at a concentration of 1 mg/m in PBS (pH 7.4). The molar heat capacity of each protein was estimated by comparison with duplicate samples containing identical buffer from which the protein had been omitted. The partial molar heat capacities and melting curves were analyzed using standard procedure. Thermograms were baseline corrected and concentration normalized.

| Molecule | binding to cells overexpressing cyno CD19 (cyno CD19) | binding to cells overexpressing human CD19 (human CD19) | Maximum response at 100 nM hFcgammaRIA (RU) (human FcγR1A) | (%) higher molecular weight [1] [%] | Melting temperature (Tm) of CH2 domain [2] [°C] |
| --- | --- | --- | --- | --- | --- |
| NEG258: CD19 antibody/binder; VH SEQ ID NO:13, VL SEQ ID NO:26 (antibody, V domains shown) VH: QVQLVQSGAEVKKPGASVKVSCKASGYTFTTYWIQWVRQAPGQRLEWMGAVYPGDADTRYTQKFQGRVTLTADRSASTAYMELSSLRSEDTAVYYCGRDAGLEYYALDYWGQGTLVTVSS VL: EIVMTQSPATLSVSPGERATLSCRASQDVGTAVAWYQQKPGQAPRLLIYWASTRHTGIPARFSGSGSGTEFTLTISSLQSEDFAVYFCQQYANFPLYTFGQGTKLEIK | greater affinity for both human CD19 and cyno CD19 | greater affinity for both human CD19 and cyno CD19 |  |  |  |
| DAPASK-IgG1: anti-CD3 IgG1 with D265A/P329A/S267K (antibody) heavy: EVQLVESGGGLVQPGGSLKLSCAASGFTFNTYAMNWVRQASGKGLEWVGRIRSKYNNYATYYADSVKDRFTISRDDSKSTLYLQMNSLKTEDTAVYYCVRHGNFGNSYVSWFAYWGQGTLVTVSSASTKGPSVFPLAPSSKSTSGGTAALGCLVKDYFPEPVTVSWNSGALTSGVHTFPAVLQSSGLYSLSSVVTVPSSSLGTQTYICNVNHKPSNTKVDKRVEPKSCDKTHTCPPCPAPELLGGPSVFLFPPKPKDTLMISRTPEVTCVVVAVKHEDPEVKFNWYVDGVEVHNAKTKPREEQYNSTYRVVSVLTVLHQDWLNGKEYKCKVSNKALAAPIEKTISKAKGQPREPQVYTLPPSRDELTKNQVSLTCLVKGFYPSDIAVEWESNGQPENNYKTTPPVLDSDGSFFLYSKLTVDKSRWQQGNVFSCSVMHEALHNHYTQKSLSLSPGK light: QAVVTQEPSLTVSPGGTVTLTCRSSTGAVTTSNYANWVQQKPGQAPRGLIGGTNKRAPWTPARFSGSLLGDKAALTLSGAQPEDEAEYFCALWYSNLWVFGGGTKLTVLGQPKAAPSVTLFPPSSEELQANKATLVCLISDFYPGAVTVAWKADSSPVKAGVETTTPSKQSNNKYAASSYLSLTPEQWKSHRSYSCQVTHEGSTVEKTVAPTECS |  |  | 13 | 3.6 | 65 |
